The values that follow come from PMC9021867 (Cell, 2022).

B1: β-VHH4 (VHH)
VHH: QVQLQESGGGSVQAGGSLRLSCAASGSTSCSSVMRWYRQAPGKEREFVSSINSDRRTVYADSVKGRFTISQDNAKSTLYLQMNSLKAEDTATYYCQRELYGDSWCQGNYWGQGTQVTVSS
B2: β-VHH6 (VHH)
VHH: QVQLQESGGGSVQAGGSLRLSCAASSYTISSVCMGWFRQAPGKEREGVAGIAPDGSTGYGDSVKGRFTISKDNAKNTLYLQMNSLKPEDTAMYYCAAASPGRCFLPRTALEPALYYNWGQGTQVTVSS
B3: β-VHH1 (VHH)
VHH: QVQLQESGGGSVQAGGSLRLSCVTSGYTYSSANMAWFRQAPGKEREGVAIITPSGRATTYADSVKGRFTISRDNAANTLYLQMNSLKPEDTAMYYCAADTPPYSGLWYAERTYNYWGQGTQVTVSS
B4: β-VHH3 (VHH)
VHH: QVQLQESGGGSVQAGGSLRLSCTASGFTFDDEDMGWYRQAPGNECELVSSIGSLGRRYYADSVKDRFAISQDNAKNTVYLQMNSLKPEDTAVYYCAATKGGSWLDSILASCQGAFGYWGQGTQVTVSS

Biotinylated human IL-2Rβ ECD, sequence (P14784 27-240): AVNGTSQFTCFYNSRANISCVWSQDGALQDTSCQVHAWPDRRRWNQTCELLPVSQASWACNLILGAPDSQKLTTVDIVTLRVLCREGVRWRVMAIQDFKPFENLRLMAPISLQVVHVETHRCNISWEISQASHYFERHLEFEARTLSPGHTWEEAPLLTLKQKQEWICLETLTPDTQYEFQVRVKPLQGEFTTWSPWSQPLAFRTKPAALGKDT

This test concerns the target Biotinylated human IL-2Rβ ECD (Homo sapiens, UniProt P14784, biotinylated). The experiment in a line: SPR. In general terms: In SPR one partner is held on a chip, and binding of the other changes the refractive index at the surface.
In the case of B1, the binding result is recorded as “binds”. As to B2, the binding result is listed as “binds”. With B3 the entry was “binds”; with B4, “binds”.
